Measured values from patent publication US5607850A, “Enzyme from microbial source: phthalyl amidase” (Eli Lilly and Company, priority 1995, dated 1997).

How the values were obtained:
[1] = Effect of pH on phthalyl amidase activity; format: biochemical
Method: The effect of pH on the reaction rate of the analytical scale purified enzyme was determined using phthalamido carbacephem (III) as substrate. [drawing 5]
A typical reaction mixture consisted of 1 ml total volume and contained 0.1 mM III, 0.1 μM phthalyl amidase in 50 mM potassium phosphate buffer (pH 5.5-9.0) at 32° C. for 20 minutes. The reactions were stopped by the addition of 1 ml methanol. After removal of precipitate by centrifugation, an aliquot of the supernatant fraction (typically 30 μl) was monitored for the beta-lactam nucleus and phthalic acid by HPLC using a Zorbax C8 column (0.46×15 cm; MacMod Analytical Inc., Chadds Ford, Pa.). The two reaction products were eluted by a mobile phase constructed as continuous mixed gradients from (a) 1% ACN (acetonitrile)/0.2% TFA (trifluoroacetic acid) and (b) 80% ACN/0.2% TFA as follows: 1) 0% (b), 3min; 2) 0-50% (b), 0.5 min; 3) 50-100% (b), 3 min; 4) 100% (b), 2.5 min; 5) 100-1% (b), 0.1 min; and 6) 0% (b), 5 min. At a flow rate of 1.5 ml/min, retention times of the beta-lactam nucleus and phthalic acid, as measured at 254 nm, were 2.3 and 7.2 min, respectively.

[2] = Optimum reaction temperature of phthalyl amidase; format: biochemical
Method: Test reactions were carried out similar to Example 5 except that all incubations were performed in 50 mM potassium phosphate buffer at pH 8.2.Solutions of the substrate were pre-incubated for 5 minutes at temperatures between 2° and 60° C. The enzymatic reaction was initiated by the addition of phthalyl amidase and stopped by the addition of 1 ml methanol. Specific activity of the enzyme was determined by monitoring the hydrolysis of III by HPLC as in Example 5.

[3] = Temperature stability of phthalyl amidase; format: physicochemical; conditions: pH 8.2; for enzyme activity retained: 48 hours
Method: The phthalyl amidase enzyme was also tested for stability at varying temperature. The enzyme was incubated at pH 8.2 in the temperature range of 4°-50° C. for 48 hours in 50 and 200 mM phosphate buffer. […] In 200 mM buffer, 80% of the enzyme activity was retained in temperatures up to 35° C. and 30% of the enzyme activity was retained after 48 hours incubation at 40° C.

[4] = Optimum salt concentration for phthalyl amidase; format: biochemical; conditions: for Specific Activity: pH 8.2, 32° C.
Method: Test reactions were carried out similar to Example 6 except that buffer concentrations ranging from 10 to 200 mM at 32° C. were examined. All other conditions and analyses were the same.

[5] = Phthalyl amidase specific activity with chromogenic substrate (II) during purification (Tables 2 and 3); format: biochemical
Method: The assay reaction mixture (1 ml) consisted of 0.3 μmol of the chromogenic substrate (II) and 0.001-0.5 μg of enzyme preparation in 50 mM potassium phosphate buffer, pH 8.0 (buffer A). The enzymatic reaction was conducted at 30° C. for 10 minutes and the appearance of product was monitored at 380 nm (or 430 nm). The amount of substrate hydrolyzed was calculated from a standard curve of the amine product.
The phthalyl amidase activity reported in Table 2 was determined using the chromogenic substrate as in Example 3. A typical reaction mixture in a total volume of 1 ml contained 0.2 mg of the chromogenic substrate and an aliquot of phthalyl amidase in buffer A. The enzymatic reaction was conducted at 30° C. for 10-15 min. Formation of the reaction product was monitored with a spectrophotometer at 430 nm (or 380 nm) and quantitated from a standard curve of the product.
The concentrated and diafiltered Super-Q mainstream was applied to a hydroxylapatite column (3.2×40 cm) equilibrated in buffer A. After washing the column with this buffer, phthalyl amidase was eluted using a linear gradient of 0-500 mM phosphate buffer, pH 8.0. Fractions were assayed according to the chromogenic substrate method (see Example 3) and the active fractions were pooled (1 L) and concentrated (400 ml).

[6] = Isoelectric focusing of phthalyl amidase; format: physicochemical
Method: The molecular weight of the phthalyl amidase was determined to be 49,000 by electrospray mass spectrometry. The enzyme is monomeric with an isoelectric point estimated by isoelectric focusing to be pH 5.5.

[7] = Stability of phthalyl amidase: effect of ionic strength and pH; format: physicochemical
Method: The stability of phthalyl amidase at pH values ranging from 6-9 was determined as described in Example 5 at 30° C. in both 20 and 200 mM potassium phosphate buffer. […] In 200 mM buffer, the enzyme retained at least 80% of its activity for 100 hours irrespective of the pH of the incubating medium.

B1: phthalyl amidase: specific enzyme which readily removes the phthalyl moiety from phthalyl-containing amides, from Xanthobacter agilis (protein)
chain: QAPSVHQHVAFTEEIGDLPDGSSYMIRVPENWNGVLIRDLDLVSGTSNSNAARYETMLKEGFAVAGTARHPLRQWQYDPAHEIENLNHVLDTFEENYGSPERVIQYGCSGGAHVSLAVAEDFSDRVDGSVALAAHTPVWIMNSFLDGWFSLQSLIGEYYVEAGHGPLSDLAITKLPNDGSSNSSGHGMEGDLPAAWRNAFTAANATPEGRARMALAFALGQWSPWLADNTPQPDLDDPEAIADSVYESAMRLAGSPGGEARIMFENAARGQQLSWNDDIDYADFWENSNPAMKSAVQELYDTAGLDLQSDIETVNSQPRIEASQYALDYWNTPGRNVIGDPEVPVLRLHMIGDYQIPYSLVQGYSDLISENNNDDLYRTAFVQSTGHCNFTAAESSAAIEVMMQRLDTGEWPSTEPDDLNAIAEASNTGTEARFMALDGWEIPEYNRTWKPE
Reactive pH range [1]: 5.5 to 9.0 pH | optimum pH [1]: 8.0±0.4 pH | Optimal pH range for enzyme activity ([1]; 32° C., 50 mM potassium phosphate): ≥ 7.8 pH | Specific Activity ([1]; pH 7.0, 32° C.): 125.4 μmol/min/μmol enzyme | Specific Activity ([1]; pH 7.2, 32° C.): 130.4 μmol/min/μmol enzyme | Specific Activity ([1]; pH 7.4, 32° C.): 155.2 μmol/min/μmol enzyme | Specific Activity ([1]; pH 7.6, 32° C.): 172.5 μmol/min/μmol enzyme | Specific Activity ([1]; pH 7.8, 32° C.): 184.2 μmol/min/μmol enzyme | Specific Activity ([1]; pH 8.0, 32° C.): 195.3 μmol/min/μmol enzyme | Specific Activity ([1]; pH 8.2, 32° C.): 201.2 μmol/min/μmol enzyme | Specific Activity ([1]; pH 8.4, 32° C.): 208.0 μmol/min/μmol enzyme | Specific Activity ([1]; pH 8.6, 32° C.): 181.7 μmol/min/μmol enzyme | Specific Activity ([1]; pH 8.8, 32° C.): 185.1 μmol/min/μmol enzyme | Specific Activity ([1]; pH 9.0, 32° C.): 33.1 μmol/min/μmol enzyme | enzyme activity outside temperature range ([2]; below 10° C. and above 50° C., pH 8.2): Little enzyme activity | temperature of maximum reaction rate ([2]; pH 8.2, 50 mM potassium phosphate): 34 °C | enzyme activity lost ([3]; 50 mM phosphate, above 40° C., within 48 hours): all enzyme activity was lost | enzyme activity retained ([3]; 50 mM phosphate, below 25° C.): 90% | enzyme activity retained ([3]; 200 mM phosphate, 40° C.): 30% | effect of high salt concentration on specific activity ([4]; 10 to 200 mM buffer): markedly improved the specific activity | Specific Activity ([4]; K Phosphate 10 mM): 148 μmol/min/μmol enzyme | Specific Activity ([4]; K Phosphate 50 mM): 300 μmol/min/μmol enzyme | Specific Activity ([4]; K Phosphate 100 mM): 350 μmol/min/μmol enzyme | Specific Activity ([4]; K Phosphate 200 mM): 360 μmol/min/μmol enzyme | Specific Activity ([4]; NH4 Acetate 10 mM): 25 μmol/min/μmol enzyme | Specific Activity ([4]; NH4 Acetate 50 mM): 50 μmol/min/μmol enzyme | Specific Activity ([4]; NH4 Acetate 100 mM): 75 μmol/min/μmol enzyme | Specific Activity ([4]; NH4 Acetate 200 mM): 100 μmol/min/μmol enzyme | Specific Activity ([4]; Tris-HCl 10 mM): 73 μmol/min/μmol enzyme | Specific Activity ([4]; Tris-HCl 50 mM): 230 μmol/min/μmol enzyme | Specific Activity ([4]; Tris-HCl 100 mM): 275 μmol/min/μmol enzyme | Specific Activity ([4]; Tris-HCl 200 mM): 300 μmol/min/μmol enzyme | Spec. Act. ([5]; Table 2, Ammonium Sulfate: 67-97% cut): 1.547 Units/mg | Spec. Act. ([5]; Table 2, Crude Extract): 0.063 Units/mg | Spec. Act. ([5]; Table 2, Hydroxylapatite): 5.52 Units/mg | Spec. Act. ([5]; Table 2, Mono P): 7.2 Units/mg | Spec. Act. ([5]; Table 2, Phenyl-Sepharose): 2.505 Units/mg | Spec. Act. ([5]; Table 2, Q Sepharose): 1.214 Units/mg | Spec. Act. ([5]; Table 3 (preparative), Crude Extract): 0.8 Units/mg | Spec. Act. ([5]; Table 3 (preparative), Hydroxylapatite): 9.0 Units/mg | Spec. Act. ([5]; Table 3 (preparative), Super-Q): 3.0 Units/mg | isoelectric point [6]: ~5.5 pH | Optimum ionic strength [7]: ≥ 200 mM | ionic strength that enhances pH and temperature stability [7]: above 20 mM | optimum stability pH [7]: 8.0±0.4 pH | pH range of stability [7]: 6-9 pH | enzyme activity lost ([7]; 20 mM potassium phosphate, within 2 hours, 30° C., any pH 6-9): all enzyme activity as lost | enzyme activity retained ([7]; 200 mM potassium phosphate, 100 hours, 30° C., pH 6-9): at least 80%
